Positions count from the first letter of the chain named.
T1: rhC5a, P01031
T1 chain: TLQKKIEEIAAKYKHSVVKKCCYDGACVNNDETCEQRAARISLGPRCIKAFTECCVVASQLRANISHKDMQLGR

B1: recombinant wild-type SCPA49 (Asn32 through His1139) (protein)
chain: NTVTEDTPATEQAVETPQPTTVSEEVPSSKETKTPQTPDDAEETVADDANDLAPQAPAKTPDTSATSKATIRDLNDPSQVKTLQEKAGKGAGTVVAVIDAGFDKNHEAWRLTDKAKARYQSKEDLEKAKKEHGITYGEWVNDKVAYYHDYSKDGKTAVDQEHGTHVSGILSGNAPSETKEPYRLEGAMPEAQLLLMRVEIVNGLADYARNYAQAIRDAVNLGAKVINMSFGNAALAYANLPDETKKPFVYAKSKGVRIVTTAGNDSSFGGKTRLPLADHPDYGVVGTPAAADSTLTVASYSPDNQLTETAMVKTDDQQDKEMPVLSTNRFEPNKAYDYAYANRGMKEDDFKDVKGKIALIERSDIDFTDKIANAKKAGAVGVLIYDNQDKGFPIELPNVDQMPAAFISRKDGLLLKDNSQKTITFNATPKVLPTASGTKLSRFSSWGLTADGNIKPDIAAPGQDILSSAANNKYAKLSGTSMSAPLVAVIMGLLQKQYETQYPDMTQSERLDLAKKVLMSSATALYDEDEKAYFSPRQQGAGAVDAKKASEATMYVTDKDNTSSKVHLNNVSDKFEVTVTVHNKSDKPHELYYQATVQTDKVDGKHFALAPKALIETSWQKITIPANSSKQVTIPIDISQFSKDLLAQMKNGYFLEGFVRIKQDPTKEELMSIPYIGFRGDFGNLSALEKPLYDSKDGSSYYHEEISDAKDQLDGDGLQFYALKNDFTALTTESNPWTIINVVKEGVENIEDIESSEITETIFAGTFAKQDDDRHYYIHRHANGKPYAAISPNGDGNRDYVQFHGTFLRNAKNLVAEVLDKEGNVVWTSEVTEQVVKNYNNDLASTLGSTRFEISRWDGKDKDAKVVANGTYTYRVRYTPISSGAKEQHTDFDVIVDNTTPEVATSATFSTEDRRLTLASKPQTSQPVYRERIAYTYMDEDLPTTEYISPNEDGTFTLPEEAETMEGATVPLKMSDFTYVVEDMAGNITYTPVTKLLEGHSNKPEQDGSDQAPDKKPETKPEQDGSDQAPDKKPETKPGQDGSGQTPDKKPETKPEKDSSGQTPGKTPQKGQPSRTLEKRSSKRALATKASTRDQLPTTNDKDTNRLH
B2: SCPA49D130A (protein)
chain: B1 chain with D99A
B3: SCPA49S512A (protein)
chain: B1 chain with S481A
B4: SCPA49N295A (protein)
chain: B1 chain with N264A
B5: ΔSCPA49 (truncated recombinant SCPA49, Thr63 through His1031) (protein)
chain: TKTPQTPDDAEETVADDANDLAPQAPAKTPDTSATSKATIRDLNDPSQVKTLQEKAGKGAGTVVAVIDAGFDKNHEAWRLTDKAKARYQSKEDLEKAKKEHGITYGEWVNDKVAYYHDYSKDGKTAVDQEHGTHVSGILSGNAPSETKEPYRLEGAMPEAQLLLMRVEIVNGLADYARNYAQAIRDAVNLGAKVINMSFGNAALAYANLPDETKKPFVYAKSKGVRIVTTAGNDSSFGGKTRLPLADHPDYGVVGTPAAADSTLTVASYSPDNQLTETAMVKTDDQQDKEMPVLSTNRFEPNKAYDYAYANRGMKEDDFKDVKGKIALIERSDIDFTDKIANAKKAGAVGVLIYDNQDKGFPIELPNVDQMPAAFISRKDGLLLKDNSQKTITFNATPKVLPTASGTKLSRFSSWGLTADGNIKPDIAAPGQDILSSAANNKYAKLSGTSMSAPLVAVIMGLLQKQYETQYPDMTQSERLDLAKKVLMSSATALYDEDEKAYFSPRQQGAGAVDAKKASEATMYVTDKDNTSSKVHLNNVSDKFEVTVTVHNKSDKPHELYYQATVQTDKVDGKHFALAPKALIETSWQKITIPANSSKQVTIPIDISQFSKDLLAQMKNGYFLEGFVRIKQDPTKEELMSIPYIGFRGDFGNLSALEKPLYDSKDGSSYYHEEISDAKDQLDGDGLQFYALKNDFTALTTESNPWTIINVVKEGVENIEDIESSEITETIFAGTFAKQDDDRHYYIHRHANGKPYAAISPNGDGNRDYVQFHGTFLRNAKNLVAEVLDKEGNVVWTSEVTEQVVKNYNNDLASTLGSTRFEISRWDGKDKDAKVVANGTYTYRVRYTPISSGAKEQHTDFDVIVDNTTPEVATSATFSTEDRRLTLASKPQTSQPVYRERIAYTYMDEDLPTTEYISPNEDGTFTLPEEAETMEGATVPLKMSDFTYVVEDMAGNITYTPVTKLLEGH

What was measured:
[1] = molecular target: rhC5a (human (printed as rhC5a)) (UniProt P01031); test: cell-based or functional assay
rhC5a, P01031 = molecular target: T1, rhC5a, P01031

Molecule | Activity (U/mg*10^-3), PMN adherence assay (rhC5a, P01031) [U/mg·10^-3] | also measured
SCPA49, streptococcal C5a peptidase of group A Streptococcus serotype M49 strain CS101, as made by the bacteria (from UniProt P58099 2-1181) (enzyme) | – | Percent inhibition of C5a induced PMN adherence [1]: 54.5%
SCPA6, streptococcal C5a peptidase of group A Streptococcus serotype M6 strain UAB200, as made by the bacteria (enzyme) | – | Percent inhibition of C5a induced PMN adherence [1]: 58.8%
B1 | 170 | –
B2 | < 20 | –
B3 | < 20 | –
B4 | < 20 | –
B5 | – | peptidase activity, PMN adherence assay (rhC5a, P01031): lacked peptidase activity

Reference: patent US20020142009A1
